# B1: OR4K15 (parent)
# chain: GUUAACGGUCAUAGGCCAUGGAAACUAGGAGCACCAUUUCGCUGCCAGUGAAGAAAUGAACAAAGAAAAUCUGGGCCAGGCAGGCAUCAAAAGAAAUAGUCUUGCGCUCAACCAGAAAGUCUGUAAUCAUUUUAAGGGUA
# Variants of: B1
# Experiment: self-cleavage, relative activity (ratio to wild type); higher = more cleavage; in vitro, sequencing; the parent is a self-cleaving ribozyme
row,Variant,self-cleavage
1,GUUAACGGUCAUAGGCCAUGGAAACUAGGAGCACCAUUUCGCUGCCAGCGAAGAAAUGAACAAAGAAAAUCUGGGCCAGGCAGGCAUCAAAAGAAAUAGUCUUGCGCUCAACCAGAAAGUCUGAAAUCAUUUUAAGGGUA [U49C U124A],0.48
2,GUUAACGGUCAUAGGCCAUGGAAACUAGGAGCACCAUUUCGCUGCCAGCGAAGAAAUGAACAAAGAAAAUCUGGGCCAGGCAGGCAUCAAAAGAAAUAGUCUUGCGCUCAACCAGAAAGUCUGUAAUCAUUGUAAGGGUA [U49C U132G],0.91
3,GUUAACGGUCAUAGGCCAUGGAAACUAGGAGCACCAUUUCGCUGCCAGCGAAGAAAUGAACAAAGAAAAUCUGGGCCAGGCAGGCAUCAAAAGAAAUAGUCUUGCGCUCAACCAGAAAGUCUGUAAUCAUUCUAAGGGUA [U49C U132C],1.45
4,GUUAACGGUCAUAGGCCAUGGAAACUAGGAGCACCAUUUCGCUGCCAGCGAAGAAAUGAACAAAGAAAAUCUGGGCCAGGCAGGCAUCAAAAGAAAUAGUCUUGCGCUCAACCAGAAAGUCUGUAAGCAUUUUAAGGGUA [U49C U127G],1.49
5,GUUAACGGUCAUAGGCCAUGGAAACUAGGAGCACCAUUUCGCUGCCAGCGAAGAAAUGAACAAAGAAAAUCUGGGCCAGGCAGGCAUCAAAAGAAAUAGUCUUGCGCUCAACCAGAAAGUCUGUAACCAUUUUAAGGGUA [U49C U127C],0.94
6,GUUAACGGUCAUAGGCCAUGGAAACUAGGAGCACCAUUUCGCUGCCAGCGAAGAAAUGAACAAAGAAAAUCUGGGCCAGGCAGGCAUCAAAAGAAAUAGUCUUGCGCUCAACCAGAAAGUCUGUAAACAUUUUAAGGGUA [U49C U127A],2.43
7,GUUAACGGUCAUAGGCCAUGGAAACUAGGAGCACCAUUUCGCUGCCAGCGAAGAAAUGAACAAAGAAAAUCUGGGCCAGGCAGGCAUCAAAAGAAAUAGUCUUGCGCUCAACCAGAAAGUCUGUAAUCAUUUCAAGGGUA [U49C U133C],1.76
8,GUUAACGGUCAUAGGCCAUGGAAACUAGGAGCACCAUUUCGCUGCCAGCGAAGAAAUGAACAAAGAAAAUCUGGGCCAGGCAGGCAUCAAAAGAAAUAGUCUUGCGCUCAACCAGAAAGUCUGUAAUCAUUUAAAGGGUA [U49C U133A],1.29
9,GUUAACGGUCAUAGGCCAUGGAAACUAGGAGCACCAUUUCGCUGCCAGCGAAGAAAUGAACAAAGAAAAUCUGGGCCAGGCAGGCAUCAAAAGAAAUAGUCUUGCGCCCAACCAGAAAGUCUGUAAUCAUUUUAAGGGUA [U49C U108C],0.01
10,GUUAACGGUCAUAGGCCAUGGAAACUAGGAGCACCAUUUCGCUGCCAGGGAAGAAAUGAACAAAGAAAAUCUGGGCCAGGCAGGCAUCAAAAGAGAUAGUCUUGCGCUCAACCAGAAAGUCUGUAAUCAUUUUAAGGGUA [U49G A95G],1.28
11,GUUAACGGUCAUAGGCCAUGGAAACUAGGAGCACCAUUUCGCUGCCAGGGAAGAAAUGAACAAAGAAAAUCAGGGCCAGGCAGGCAUCAAAAGAAAUAGUCUUGCGCUCAACCAGAAAGUCUGUAAUCAUUUUAAGGGUA [U49G U72A],0.32
12,GUUAACGGUCAUAGGCCAUGGAAACUAGGAGCACCAUUUCGCUGCCAGGGAAGAAAUGAACAAAGAAAAUCUGGACCAGGCAGGCAUCAAAAGAAAUAGUCUUGCGCUCAACCAGAAAGUCUGUAAUCAUUUUAAGGGUA [U49G G75A],0.09
13,GUUAACGGUCAUAGGCCAUGGAAACUAGGAGCACCAUUUCGCUGCCAGCGAAGAAAUGAACAAAGAAAAUCUGGGCCAGGCAGGCAUCAAAAGAAAUAUUCUUGCGCUCAACCAGAAAGUCUGUAAUCAUUUUAAGGGUA [U49C G99U],0.28
14,GUUAACGGUCAUAGGCCAUGGAAACUAGGAGCACCAUUUCGCUGCCAGGGAAGAAGUGAACAAAGAAAAUCUGGGCCAGGCAGGCAUCAAAAGAAAUAGUCUUGCGCUCAACCAGAAAGUCUGUAAUCAUUUUAAGGGUA [U49G A56G],1.64
15,GUUAACGGUCAUAGGCCAUGGAAACUAGGAGCACCAUUUCGCUGCCAGCGAAGAAAUGAACAAAGAAAAUCUGGGCCAGGCAGGCAUCAAAAGAAACAGUCUUGCGCUCAACCAGAAAGUCUGUAAUCAUUUUAAGGGUA [U49C U97C],1.29
16,GUUAACGGUCAUAGGCCAUGGAAACUAGGAGCACCAUUUCGCUGCCAGCGAAGAAAUGAACAAAGAAAAUCUGGGCCAGGCAGGCACCAAAAGAAAUAGUCUUGCGCUCAACCAGAAAGUCUGUAAUCAUUUUAAGGGUA [U49C U87C],1.58
17,GUUAACGGUCAUAGGCCAUGGAAACUAGGAGCACCAUUUCGCUGCCAGGGAAGAAAUGAACAAAGACAAUCUGGGCCAGGCAGGCAUCAAAAGAAAUAGUCUUGCGCUCAACCAGAAAGUCUGUAAUCAUUUUAAGGGUA [U49G A67C],1.97
18,GUUAACGGUCAUAGGCCAUGGAAACUAGGAGCACCAUUUCGCUGCCAGCGAAGAAAUGAACAAAGAAAAUCUGGGCCAGGCAGGCAUCAAAAGAAAUAGUCCUGCGCUCAACCAGAAAGUCUGUAAUCAUUUUAAGGGUA [U49C U102C],2
19,GUUAACGGUCAUAGGCCAUGGAAACUAGGAGCACCAUUUCGCUGCCAGCGAAGAAAUGAACAAAGAAAAUCUGGGCCAGGCAGGCAUCAAAAGAAAUAGUCAUGCGCUCAACCAGAAAGUCUGUAAUCAUUUUAAGGGUA [U49C U102A],0.53
20,GUUAACGGUCAUAGGCCAUGGAAACUAGGAGCACCAUUUCGCUGCCAGCGAAGAAAUGAACAAAGAAAAUCUGGGCCAGGCAGGCAUCAAAAGAAAUAGUCUUGCGCUCAACCAGAAAGUCUGUAAUCAUUUUAAGGCUA [U49C G138C],1.54
21,GUUAACGGUCAUAGGCCAUGGAAACUAGGAGCACCAUUUCGCUGCCAGCGAAGAAAUGAACAAAGAAAACCUGGGCCAGGCAGGCAUCAAAAGAAAUAGUCUUGCGCUCAACCAGAAAGUCUGUAAUCAUUUUAAGGGUA [U49C U70C],0.59

row,Variant,self-cleavage
1,GUUAACGGUCAUAGGCCAUGGAAACUAGGAGCACCAUUUCGCUGCCAGCGAAGAAAUGAACAAAGAAAAUCUGGGCCAGGCAGGCAUCAAAAGAAAUAGUCUUGCGCUCAACCAGAAAGUCUGUAAUCAUCUUAAGGGUA [U49C U131C],1.11
2,GUUAACGGUCAUAGGCCAUGGAAACUAGGAGCACCAUUUCGCUGCCAGGGAAGAAAUGUACAAAGAAAAUCUGGGCCAGGCAGGCAUCAAAAGAAAUAGUCUUGCGCUCAACCAGAAAGUCUGUAAUCAUUUUAAGGGUA [U49G A59U],1.34
3,GUUAACGGUCAUAGGCCAUGGAAACUAGGAGCACCAUUUCGCUGCCAGGGAAGAAAUGGACAAAGAAAAUCUGGGCCAGGCAGGCAUCAAAAGAAAUAGUCUUGCGCUCAACCAGAAAGUCUGUAAUCAUUUUAAGGGUA [U49G A59G],0.95
4,GUUAACGGUCAUAGGCCAUGGAAACUAGGAGCACCAUUUCGCUGCCAGCGAAGAAAUGAACAAAGAAAAUCUGGGCCAGGCAGGCAUCAAAAGAAAUAGUCUUGCGCUCAACCAGAAAGUCUGUAAUCAUUUUAAGGGCA [U49C U139C],1.71
5,GUUAACGGUCAUAGGCCAUGGAAACUAGGAGCACCAUUUCGCUGCCAGCGAAGAAAUGAACAAAGAAAAUCUGGGCCAGGCAGGCAUCAAAAGAAAUAGUCUUGCGCUCAACCAGAAAGUCCGUAAUCAUUUUAAGGGUA [U49C U122C],0.52
6,GUUAACGGUCAUAGGCCAUGGAAACUAGGAGCACCAUUUCGCUGCCAGCGAAGAAAUGAACAAAGAAAAUCUGGGCCAGGCAUGCAUCAAAAGAAAUAGUCUUGCGCUCAACCAGAAAGUCUGUAAUCAUUUUAAGGGUA [U49C G83U],0.71
7,GUUAACGGUCAUAGGCCAUGGAAACUAGGAGCACCAUUUCGCUGCCAGCGAAGAAAUGAACAAAGAAAAUCUGGGCCAGGCAGGCAUCAAAAGAAAUAGUCUUGCGCUCAACCAGAAAGUCUGUAAUCACUUUAAGGGUA [U49C U130C],0.77
8,GUUAACGGUCAUAGGCCAUGGAAACUAGGAGCACCAUUUCGCUGCCAGCGAAGAAAUGAACAAAGAAAAUCUGGGCCAGGCAGGCAUCAAAAGAAAUAGUCUCGCGCUCAACCAGAAAGUCUGUAAUCAUUUUAAGGGUA [U49C U103C],1.01
9,GUUAACGGUCAUAGGCCAUGGAAACUAGGAGCACCAUUUCGCUGCCAGCGAAGAAAUGAACAAAGAAAAUCUGGGCCAGGCAGGCAUCAAAAGAAAUAGACUUGCGCUCAACCAGAAAGUCUGUAAUCAUUUUAAGGGUA [U49C U100A],0.63
10,GUUAACGGUCAUAGGCCAUGGAAACUAGGAGCACCAUUUCGCUGCCAGCGAAGAAAUGAACAAAGAAAAUCUGGGCCAGGCAGGCAUCAAAAGAAAUAGGCUUGCGCUCAACCAGAAAGUCUGUAAUCAUUUUAAGGGUA [U49C U100G],1.72
11,GUUAACGGUCAUAGGCCAUGGAAACUAGGAGCACCAUUUCGCUGCCAGCGAAGAAAUGAACAAAGAAAAUCUGGGCCAGGCAGGCAUCAAAAGAAAUAGCCUUGCGCUCAACCAGAAAGUCUGUAAUCAUUUUAAGGGUA [U49C U100C],2
12,GUUAACGGUCAUAGGCCAUGGAAACUAGGAGCACCAUUUCGCUGCCAGGGAAGAAAUGAACAAAGAAAAUCUGGGCCAGGCAAGCAUCAAAAGAAAUAGUCUUGCGCUCAACCAGAAAGUCUGUAAUCAUUUUAAGGGUA [U49G G83A],0.47
13,GUUAACGGUCAUAGGCCAUGGAAACUAGGAGCACCAUUUCGCUGCCAGGGAAGAAAUGAACAAAGAAAAUCUGGGCCAGGCAGGCAUCAAAAGAAAUGGUCUUGCGCUCAACCAGAAAGUCUGUAAUCAUUUUAAGGGUA [U49G A98G],0.14
14,GUUAACGGUCAUAGGCCAUGGAAACUAGGAGCACCAUUUCGCUGCCAGCGAAGAAAUGAACAAAGAAAAUCUGGGCCAGGCAGGCAUCAAAAGAAAUAGUCUUGCGCUCAACCAGAAAGGCUGUAAUCAUUUUAAGGGUA [U49C U120G],1.33
15,GUUAACGGUCAUAGGCCAUGGAAACUAGGAGCACCAUUUCGCUGCCAGCGAAGAAAUGAACAAAGAAAAUCUGGGCCAGUCAGGCAUCAAAAGAAAUAGUCUUGCGCUCAACCAGAAAGUCUGUAAUCAUUUUAAGGGUA [U49C G80U],0.11
16,GUUAACGGUCAUAGGCCAUGGAAACUAGGAGCACCAUUUCGCUGCCAGGGAAGAAAUGAACAAAGAAAAUCUGGGCCAGGCAGGCACCAAAAGAAAUAGUCUUGCGCUCAACCAGAAAGUCUGUAAUCAUUUUAAGGGUA [U49G U87C],1.48
17,GUUAACGGUCAUAGGCCAUGGAAACUAGGAGCACCAUUUCGCUGCCAGGGGAGAAAUGAACAAAGAAAAUCUGGGCCAGGCAGGCAUCAAAAGAAAUAGUCUUGCGCUCAACCAGAAAGUCUGUAAUCAUUUUAAGGGUA [U49G A51G],0.95
18,GUUAACGGUCAUAGGCCAUGGAAACUAGGAGCACCAUUUCGCUGCCAGCGAAGAAAUGAACAAAGAAAAUCUGGGCCAGGCAGGCAUCAAAAGAAAUAGUCUUGCGCUCAACCAGAAAGUCUUUAAUCAUUUUAAGGGUA [U49C G123U],0.88
19,GUUAACGGUCAUAGGCCAUGGAAACUAGGAGCACCAUUUCGCUGCCAGGGAAGAAAUGAACUAAGAAAAUCUGGGCCAGGCAGGCAUCAAAAGAAAUAGUCUUGCGCUCAACCAGAAAGUCUGUAAUCAUUUUAAGGGUA [U49G A62U],0.74
20,GUUAACGGUCAUAGGCCAUGGAAACUAGGAGCACCAUUUCGCUGCCAGCGAAGAAAUGAACAAAGAAAAUCCGGGCCAGGCAGGCAUCAAAAGAAAUAGUCUUGCGCUCAACCAGAAAGUCUGUAAUCAUUUUAAGGGUA [U49C U72C],0.3
